Measured values published in patent publication US20060264363.

T1: SHC3 (p52) with C-terminal c-Myc-tag
T1 chain: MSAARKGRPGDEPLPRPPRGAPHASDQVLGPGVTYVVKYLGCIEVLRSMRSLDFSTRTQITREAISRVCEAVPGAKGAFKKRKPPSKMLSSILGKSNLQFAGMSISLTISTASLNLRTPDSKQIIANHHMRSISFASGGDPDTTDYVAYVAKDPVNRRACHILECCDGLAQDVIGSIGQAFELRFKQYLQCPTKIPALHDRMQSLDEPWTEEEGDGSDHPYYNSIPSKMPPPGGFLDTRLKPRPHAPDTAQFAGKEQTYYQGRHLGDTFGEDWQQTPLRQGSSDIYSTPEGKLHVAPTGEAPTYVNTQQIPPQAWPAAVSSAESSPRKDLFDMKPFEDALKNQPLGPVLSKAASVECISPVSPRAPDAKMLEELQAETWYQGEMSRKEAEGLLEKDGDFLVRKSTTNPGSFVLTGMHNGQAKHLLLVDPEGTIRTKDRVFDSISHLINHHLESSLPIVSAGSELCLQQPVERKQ

T2: ATF6 with N-terminal c-Myc-tag
T2 chain: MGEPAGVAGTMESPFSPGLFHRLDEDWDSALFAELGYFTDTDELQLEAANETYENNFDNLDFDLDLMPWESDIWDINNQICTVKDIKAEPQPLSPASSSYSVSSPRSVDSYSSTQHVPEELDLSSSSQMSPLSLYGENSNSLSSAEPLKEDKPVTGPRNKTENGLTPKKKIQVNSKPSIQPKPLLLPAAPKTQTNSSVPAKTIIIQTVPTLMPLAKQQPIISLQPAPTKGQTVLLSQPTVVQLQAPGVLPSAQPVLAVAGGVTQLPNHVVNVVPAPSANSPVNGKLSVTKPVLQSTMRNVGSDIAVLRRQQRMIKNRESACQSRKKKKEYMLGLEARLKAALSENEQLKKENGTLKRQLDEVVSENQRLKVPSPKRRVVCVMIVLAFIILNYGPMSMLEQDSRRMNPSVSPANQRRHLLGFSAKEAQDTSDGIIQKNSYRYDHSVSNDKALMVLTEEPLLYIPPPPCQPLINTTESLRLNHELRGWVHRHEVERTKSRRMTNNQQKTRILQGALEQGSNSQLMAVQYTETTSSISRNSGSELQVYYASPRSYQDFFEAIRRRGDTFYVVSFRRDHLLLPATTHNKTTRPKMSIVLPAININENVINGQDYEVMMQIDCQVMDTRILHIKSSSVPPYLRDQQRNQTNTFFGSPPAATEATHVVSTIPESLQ

T3: biotinylated SHC3 (p64), C-terminal tagged (pcDNA3.1/V5-His)
T3 chain: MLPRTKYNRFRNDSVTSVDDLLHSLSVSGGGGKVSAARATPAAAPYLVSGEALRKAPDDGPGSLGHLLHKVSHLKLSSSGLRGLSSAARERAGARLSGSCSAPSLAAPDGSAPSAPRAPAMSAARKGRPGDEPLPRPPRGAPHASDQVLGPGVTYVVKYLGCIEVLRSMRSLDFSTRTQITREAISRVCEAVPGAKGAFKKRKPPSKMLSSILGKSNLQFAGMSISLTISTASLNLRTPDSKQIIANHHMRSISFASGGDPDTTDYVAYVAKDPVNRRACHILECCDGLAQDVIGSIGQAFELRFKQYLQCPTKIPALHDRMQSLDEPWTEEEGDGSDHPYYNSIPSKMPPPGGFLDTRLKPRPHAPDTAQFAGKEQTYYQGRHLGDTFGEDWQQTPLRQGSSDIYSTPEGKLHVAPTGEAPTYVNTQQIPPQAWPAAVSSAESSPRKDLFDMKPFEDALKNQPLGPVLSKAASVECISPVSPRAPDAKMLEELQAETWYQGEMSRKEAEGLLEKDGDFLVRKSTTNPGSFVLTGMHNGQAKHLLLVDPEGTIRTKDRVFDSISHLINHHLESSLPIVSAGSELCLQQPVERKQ

T4: biotinylated CREBL1, N-terminal tagged (pcDNA3.1/His)
T4 chain: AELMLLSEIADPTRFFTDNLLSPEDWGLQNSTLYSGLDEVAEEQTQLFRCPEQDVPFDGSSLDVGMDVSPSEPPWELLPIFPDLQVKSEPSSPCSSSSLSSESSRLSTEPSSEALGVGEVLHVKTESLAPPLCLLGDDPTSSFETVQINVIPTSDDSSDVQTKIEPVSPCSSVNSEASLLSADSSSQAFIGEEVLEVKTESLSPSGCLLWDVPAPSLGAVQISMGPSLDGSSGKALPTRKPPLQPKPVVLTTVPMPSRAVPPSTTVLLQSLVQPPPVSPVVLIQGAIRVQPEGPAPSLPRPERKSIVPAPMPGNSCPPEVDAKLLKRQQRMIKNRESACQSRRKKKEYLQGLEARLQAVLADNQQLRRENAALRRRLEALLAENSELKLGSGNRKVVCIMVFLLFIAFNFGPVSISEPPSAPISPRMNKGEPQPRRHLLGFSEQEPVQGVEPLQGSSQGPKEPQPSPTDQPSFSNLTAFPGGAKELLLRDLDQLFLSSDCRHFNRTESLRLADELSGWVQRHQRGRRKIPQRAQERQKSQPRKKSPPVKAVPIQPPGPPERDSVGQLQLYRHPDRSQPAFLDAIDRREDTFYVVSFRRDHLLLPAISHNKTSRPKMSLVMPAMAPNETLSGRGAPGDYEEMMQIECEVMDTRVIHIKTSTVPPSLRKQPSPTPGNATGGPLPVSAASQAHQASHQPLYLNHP

T5: SHC3 (p64) with C-terminal c-Myc-tag
T5 chain: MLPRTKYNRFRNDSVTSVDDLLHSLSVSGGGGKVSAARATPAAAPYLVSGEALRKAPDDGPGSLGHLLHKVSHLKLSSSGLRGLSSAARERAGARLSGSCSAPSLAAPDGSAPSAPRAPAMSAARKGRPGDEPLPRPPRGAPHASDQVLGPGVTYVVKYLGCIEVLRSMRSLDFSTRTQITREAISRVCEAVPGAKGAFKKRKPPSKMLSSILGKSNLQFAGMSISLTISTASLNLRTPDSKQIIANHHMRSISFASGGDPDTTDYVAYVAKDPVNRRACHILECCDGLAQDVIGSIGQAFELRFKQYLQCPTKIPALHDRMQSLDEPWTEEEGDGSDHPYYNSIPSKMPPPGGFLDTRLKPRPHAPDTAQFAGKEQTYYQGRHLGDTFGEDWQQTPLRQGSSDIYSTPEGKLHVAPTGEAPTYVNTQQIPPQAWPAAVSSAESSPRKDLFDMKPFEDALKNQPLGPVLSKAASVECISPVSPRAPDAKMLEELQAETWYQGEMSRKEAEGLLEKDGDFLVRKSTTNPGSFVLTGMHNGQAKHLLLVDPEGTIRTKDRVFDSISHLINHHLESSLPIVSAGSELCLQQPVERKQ

T6: biotinylated SHC3 (p52), C-terminal tagged (pcDNA3.1/V5-His)
T6 chain: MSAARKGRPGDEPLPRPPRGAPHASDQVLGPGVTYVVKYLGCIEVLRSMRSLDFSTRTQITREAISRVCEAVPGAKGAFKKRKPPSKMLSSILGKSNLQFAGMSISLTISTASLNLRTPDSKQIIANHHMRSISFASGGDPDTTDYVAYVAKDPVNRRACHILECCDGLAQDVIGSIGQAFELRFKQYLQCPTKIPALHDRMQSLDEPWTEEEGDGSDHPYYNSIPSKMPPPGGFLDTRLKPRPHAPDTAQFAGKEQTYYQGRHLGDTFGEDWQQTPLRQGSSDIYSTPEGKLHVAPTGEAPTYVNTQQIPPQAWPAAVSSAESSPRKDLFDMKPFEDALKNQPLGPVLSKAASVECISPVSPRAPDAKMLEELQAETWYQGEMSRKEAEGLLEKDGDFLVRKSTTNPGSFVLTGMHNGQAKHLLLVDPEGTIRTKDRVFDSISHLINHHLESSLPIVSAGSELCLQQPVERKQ

T7: CREBL1 with N-terminal c-Myc-tag
T7 chain: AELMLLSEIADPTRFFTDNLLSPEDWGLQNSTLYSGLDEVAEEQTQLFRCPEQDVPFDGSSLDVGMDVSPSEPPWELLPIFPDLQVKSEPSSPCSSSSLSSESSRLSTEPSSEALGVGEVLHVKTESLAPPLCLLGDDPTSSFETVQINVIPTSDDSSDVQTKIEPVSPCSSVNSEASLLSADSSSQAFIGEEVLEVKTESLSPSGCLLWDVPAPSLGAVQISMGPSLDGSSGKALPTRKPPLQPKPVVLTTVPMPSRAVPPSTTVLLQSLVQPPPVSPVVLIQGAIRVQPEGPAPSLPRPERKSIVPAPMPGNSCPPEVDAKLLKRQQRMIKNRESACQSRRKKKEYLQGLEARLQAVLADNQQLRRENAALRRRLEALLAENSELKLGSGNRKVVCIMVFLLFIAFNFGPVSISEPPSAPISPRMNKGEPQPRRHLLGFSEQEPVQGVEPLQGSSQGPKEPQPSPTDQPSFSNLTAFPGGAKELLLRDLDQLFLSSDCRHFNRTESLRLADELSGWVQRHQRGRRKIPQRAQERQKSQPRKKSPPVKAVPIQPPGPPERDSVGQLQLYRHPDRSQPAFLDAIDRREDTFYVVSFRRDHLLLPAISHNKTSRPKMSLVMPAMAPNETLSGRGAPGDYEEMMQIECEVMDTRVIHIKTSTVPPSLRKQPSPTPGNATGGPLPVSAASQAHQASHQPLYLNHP


Experiments:
[1] = target: T1, SHC3 (p52) with C-terminal c-Myc-tag
[2] = target: T2, ATF6 with N-terminal c-Myc-tag
[3] = target: T3, biotinylated SHC3 (p64), C-terminal …
[4] = target: T4, biotinylated CREBL1, N-terminal tagged …
[5] = target: T5, SHC3 (p64) with C-terminal c-Myc-tag
[6] = target: T6, biotinylated SHC3 (p52), C-terminal …
[7] = target: T7, CREBL1 with N-terminal c-Myc-tag

Protein	in vitro protease assay: degradation of SHC3 (p52), anti-Myc Western blot [1]	in vitro protease assay: band of ATF6 on anti-Myc Western blot [2]	in vitro protease assay: degradation pattern of biotinylated SHC3 (p64) (streptavidin HRP and anti-V5 blots) [3]	in vitro protease assay: degradation pattern of biotinylated CREBL1 (streptavidin HRP and anti-Xpress blots) [4]	in vitro protease assay: band of SHC3 (p64) on anti-Myc Western blot [5]	in vitro protease assay: degradation pattern of biotinylated SHC3 (p52) (streptavidin HRP and anti-V5 blots) [6]	in vitro protease assay: band of CREBL1 on anti-Myc Western blot [7]	in vitro protease assay: degradation of ATF6, anti-Myc Western blot [2]	in vitro protease assay: degradation of biotinylated SHC3 (p64) (streptavidin HRP blot) [3]	in vitro protease assay: degradation of biotinylated CREBL1 (streptavidin HRP blot) [4]	in vitro protease assay: degradation of SHC3 (p64), anti-Myc Western blot [5]	in vitro protease assay: degradation of biotinylated SHC3 (p52) (streptavidin HRP blot) [6]	in vitro protease assay: degradation of CREBL1, anti-Myc Western blot [7]
mature HtrA2 with C-terminal histidine (His)-tag (protein) MAVPSPPPASPRSQYNFIADVVEKTAPAVVYIEILDRHPFLGREVPISNGSGFVVAADGLIVTNAHVVADRRRVRVRLLSGDTYEAVVTAVDPVADIATLRIQTKEPLPTLPLGRSADVRQGEFVVAMGSPFALQNTITSGIVSSAQRPARDLGLPQTNVEYIQTDAAIDFGNSGGPLVNLDGEVIGVNTMKVTAGISFAIPSDRLREFLHRGEKKNSSSGISGSQRRYIGVMMLTLSPSILAELQLREPSFPDVQHGVLIHKVILGSPAHRAGLRPGDVILAIGEQMVQNAEDVYEAVRTQSQLAVQIRRGRETLTLYVTPEVTE	Further it was observed that SHC3 (p52) was also degraded by mature HtrA2.	the band of ATF6 was significantly reduced after the reaction of active HtrA2 with ATF6 for four hours (4 h) or overnight (O/N)	remarkable reduction of the band of biotinylated SHC3 (p64) was observed, and further, the bands that were supposed to be a degradation products of SHC3 (p64) were detected around 70 kDa, 40 kDa, and 30 kDa	remarkable reduction of the band of biotinylated CREBL1 was observed, and further, the band that was supposed to be a degradation product of CREBL1 was detected around 50 kDa	the band of SHC3 (p64) was significantly reduced after the reaction of active HtrA2 with SHC3 (p64) for four hours (4 h) or overnight (O/N)	remarkable reduction of the band of biotinylated SHC3 (p52) was observed, but the band that was supposed to be a degradation product of SHC3 (p52) was not detected	the band of CREBL1 was significantly reduced after the reaction of active HtrA2 with CREBL1 for overnight (O/N)						
mature HtrA2 (S306A) with C-terminal histidine (His)-tag (protein) MAVPSPPPASPRSQYNFIADVVEKTAPAVVYIEILDRHPFLGREVPISNGSGFVVAADGLIVTNAHVVADRRRVRVRLLSGDTYEAVVTAVDPVADIATLRIQTKEPLPTLPLGRSADVRQGEFVVAMGSPFALQNTITSGIVSSAQRPARDLGLPQTNVEYIQTDAAIDFGNAGGPLVNLDGEVIGVNTMKVTAGISFAIPSDRLREFLHRGEKKNSSSGISGSQRRYIGVMMLTLSPSILAELQLREPSFPDVQHGVLIHKVILGSPAHRAGLRPGDVILAIGEQMVQNAEDVYEAVRTQSQLAVQIRRGRETLTLYVTPEVTE	the degradation of SHC3 (p52) by inactive HtrA2 (mature HtrA2 (S306A)) was not observed as well							the degradation of CREBL1, ATF6, and SHC3 (p64) by inactive HtrA2 (mature HtrA2 (S306A)) was not observed	the degradation of SHC3 (p64) by inactive HtrA2 (mature HtrA2 (S306A)) was not observed, and the bands around 70 kDa, 40 kDa and 30 kDa as above were not detected	the degradation of CREBL1 by inactive HtrA2 (mature HtrA2 (S306A)) was not observed, and the band around 50 kDa as above was not detected	the degradation of CREBL1, ATF6, and SHC3 (p64) by inactive HtrA2 (mature HtrA2 (S306A)) was not observed	the degradation of SHC3 (p52) by inactive HtrA2 (mature HtrA2 (S306A)) was not observed	the degradation of CREBL1, ATF6, and SHC3 (p64) by inactive HtrA2 (mature HtrA2 (S306A)) was not observed
